Experimental findings from publication PMC9300613 are described below.

Assay [1] concerns the target bovine brain αβ-tubulin (taxol-stabilised microtubules, dolastatin-induced rings or DARPin-capped free dimer for biochemical assays) (bovine) (UniProt Q6B856). In words: co-sedimentation; 1 μM kinesin with 0-10 μM taxol-stabilised microtubules, BRB80 + 100 mM KCl, 2 mM AMP-PNP, 20 μM taxol, 20 min at 25 °C; pellet and supernatant by SDS-PAGE; Kd from a quadratic fit.
The target is the same in assay [2].

“HsKHC-MDN_(L2-CaKip3) (HsKHC-MDN with loop-2 IASK, I41-K44, replaced by CaKip3 loop-2 F116-H144) (from UniProt P33176;A0A1D8PKA4) (domain or fragment)”: the fold greater affinity than HsKHC-MDN in assay [1] turned out to be 7 fold. Also, in assay [2], the microtubule-gliding speed of HsKHC-MDN (L2-CaKip3) relative to HsKHC-MDN (taxol-stabilised microtubules) amounted to 2 fold and the microtubule-stimulated ATP turnover at steady state, relative to HsKHC-MDN was determined as 2 fold.
